# Data taken from IntAct's records for PubMed 18728196.
# B1: Anti-sigma factor RshA (Mycobacterium tuberculosis (strain ATCC 25618 / P9WJ69 (parent)
# chain: MSENCGPTDAHADHDDSHGGMGCAEVIAEVWTLLDGECTPETRERLRRHLEACPGCLRHYGLEERIKALIGTKCRGDRAPEGLRERLRLEIRRTTIIRGGP
# Variants of: B1
# Conditions: with pstp_myctu pstP
row,Variant,effect of a mutation on the interaction
1,MSENCGPTDAHADHDDSHGGMGCAEVIAEVWTLLDGECTPETRERLRRHLEACPGCLRHYGLEERIKALIGTKCRGDRAPEGLRERLRLEIRRATIIRGGP,disrupting interaction
